Data from patent US20250179161A1 (OTHAIR PROTHENA, published 2025).
Where a chain is given by its changes, count along the chain named. Values joined by “and” are separate entries in the source; they are usually repeats but may differ in a detail not shown here. Equal values may be shown once.

Assays:
Amyloid Beta (Aβ) 1-42 [1] = target: Amyloid Beta (Aβ) 1-42 (human); assay: cell-based or functional assay
Amyloid Beta (Aβ) 1-42 [2] = target: T1, Amyloid Beta (Aβ) 1-42 (human); assay: direct ELISA on fibrillar Aβ1-42
T1 construct: The same peptide was used in several aggregation states: fibrils, a heterogeneous aggregate mixture, and soluble oligomers or aggregates; also called Aβ42; Aβ 42
T1 sequence (peptide, as listed by the source): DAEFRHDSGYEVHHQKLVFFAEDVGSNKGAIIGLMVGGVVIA

Amyloid Beta (Aβ) 1-42 [3] = target: T1, Amyloid Beta (Aβ) 1-42; assay: cell-based or functional assay; remark: listed apart in the source
Amyloid Beta (Aβ) 1-42 [4] = target: T1, Amyloid Beta (Aβ) 1-42; assay: direct ELISA on plate-coated Aβ42 fibrils (FIG. 21)
Amyloid Beta (Aβ) 1-42 [5] = target: T1, Amyloid Beta (Aβ) 1-42; assay: SPR (BIAcore T200), Aβ1-42 fibrils immobilized on CM5, antibody as analyte, global 1:1 fit
Amyloid Beta (Aβ) 1-42 [6] = target: T1, Amyloid Beta (Aβ) 1-42; assay: SPR (BIAcore T200), Aβ1-42 fibrils immobilized on CM5, antibody as analyte, global 1:1 fit; apparent KD
Amyloid Beta (Aβ) 1-42 [7] = target: T1, Amyloid Beta (Aβ) 1-42; assay: competition ELISA, plate coated with fibril Aβ42, competitor hBP-biotin; IC50 of test divided by IC50 of hBP
Amyloid Beta (Aβ) 1-42 [8] = target: T1, Amyloid Beta (Aβ) 1-42; assay: direct ELISA, fibril aBeta plate coat titrated, antibody held constant at 2 ug/ml; no unit in the table, x axis 'log ng/ml Abeta' [right panel]
Amyloid Beta (Aβ) 1-42 [9] = target: T1, Amyloid Beta (Aβ) 1-42; assay: direct ELISA, antibody titrated on 2.5 ug/ml plate-coated fibril Abeta; the row head of the drawn table reads 'IC50', the note below it says EC50; no unit in the table, x axis 'log ng/ml antibody' [left panel]
Amyloid Beta (Aβ) 1-42 [10] = target: T1, Amyloid Beta (Aβ) 1-42; assay: SPR on Aβ1-42 fibrils; this end is tied to h2831 by the KD values of Table 6
Amyloid Beta (Aβ) 1-42 [11] = target: T1, Amyloid Beta (Aβ) 1-42; assay: direct ELISA on plate-coated Aβ42 fibrils (FIG. 21); this end is tied to h2831 by the EC50 values of Table 7
Amyloid Beta (Aβ) 1-42 [12] = target: T1, Amyloid Beta (Aβ) 1-42; assay: SPR on Aβ1-42 fibrils; this end is tied to h2726 by the KD values of Table 6
Amyloid Beta (Aβ) 1-42 [13] = target: T1, Amyloid Beta (Aβ) 1-42; assay: direct ELISA on plate-coated Aβ42 fibrils (FIG. 21); this end is tied to h2726 by the EC50 values of Table 7
Amyloid Beta (Aβ) 1-42 [14] = target: T1, Amyloid Beta (Aβ) 1-42; assay: SPR (BIAcore T200), Aβ1-42 fibrils immobilized on CM5, Fab as analyte, global 1:1 fit
Amyloid Beta (Aβ) 1-42 [15] = target: T1, Amyloid Beta (Aβ) 1-42; assay: SPR (BIAcore T200), Aβ1-42 fibrils immobilized on CM5, Fab as analyte, global 1:1 fit; apparent KD
Amyloid Beta (Aβ) 1-42 [16] = target: T1, Amyloid Beta (Aβ) 1-42; assay: competition ELISA on plate-coated Aβ42 fibrils; competitor: biotinylated hBP (bapineuzumab)

B1: h2731 (antibody, V domains shown)
VH: EVQLLESGGGLVQPGGSLRLSCAASGFTFSNYGMSWVRQAPGKGLEWVASIRSGSGRTYYSDNVKGRFTISRDNSKNTLYLQMNSLRAEDTAVYYCVRYDHYSGSSDYWGQGTLVTVSS
VL: DVVMTQSPLSLPVTLGEPASISCKSSQSLLDYDGKTYLNWLLQKPGQSPQRLIYRVTNRDTGVPDRFSGSGSGTDFTLKISRVEAEDVGVYYCWQGTHFPRSFGQGTKVEIK
notes: Humanized IgG
- blockade of binding of soluble Aβ to rat hippocampal synapses at 1:50 molar mAb:Aβ42 ratio (Amyloid Beta (Aβ) 1-42 [1]): > 90%
- EC50 (Amyloid Beta (Aβ) 1-42 [2]): 0.0081 µg/mL and 0.054 nM
- IC50 of Abeta spots per neuron (% Abeta control); the table gives no unit, the x axis is 'mAb (µg/mL)' (Amyloid Beta (Aβ) 1-42 [3]): 0.47 µg/mL
- Total Area (under the curve of Abeta spots per neuron, % Abeta control) (Amyloid Beta (Aβ) 1-42 [3]): 7520
- fold increase in assay signal (OD490) relative to aducanumab (Amyloid Beta (Aβ) 1-42 [4]): 3 fold
- koff (Amyloid Beta (Aβ) 1-42 [5]): 2.62e-05 s⁻¹
- kon (Amyloid Beta (Aβ) 1-42 [5]): 372000 M⁻¹ s⁻¹
- Kd (Amyloid Beta (Aβ) 1-42 [6]): 0.0704 nM
- IC50 ratio (test:hBP) (Amyloid Beta (Aβ) 1-42 [7]): 0.61
- IC50 (half-maximal fibril Abeta coating concentration at constant antibody) (Amyloid Beta (Aβ) 1-42 [8]): 0.44 µg/mL
- EC50 (Amyloid Beta (Aβ) 1-42 [9]): 0.0387 µg/mL

B2: h2826 (antibody, V domains shown)
VH: B1 VH with Y32F, I51V, S105T
VL: B1 VL with L15P, R55K, T57S, T61S, S102T
- IC50 ratio (test:hBP) (Amyloid Beta (Aβ) 1-42 [7]): 1.1

B3: h2831 (antibody, V domains shown)
VH: B1 VH with Y32F, I51V, S105T
VL: B1 VL
notes: Humanized IgG
- IC50 of Abeta spots per neuron (% Abeta control); the table gives no unit, the x axis is 'mAb (µg/mL)' (Amyloid Beta (Aβ) 1-42 [3]): 0.924 µg/mL
- Total Area (under the curve of Abeta spots per neuron, % Abeta control) (Amyloid Beta (Aβ) 1-42 [3]): 6500
- fold increase in assay signal (OD490) relative to aducanumab (Amyloid Beta (Aβ) 1-42 [4]): 3 fold
- fold greater avidity (apparent KD) than aducanumab (Amyloid Beta (Aβ) 1-42 [10]): 5 to 11 fold
- koff (Amyloid Beta (Aβ) 1-42 [5]): 2.94e-05 s⁻¹
- kon (Amyloid Beta (Aβ) 1-42 [5]): 265000 M⁻¹ s⁻¹
- Kd (Amyloid Beta (Aβ) 1-42 [6]): 0.111 nM
- fold lower estimated EC50 relative to aducanumab (Amyloid Beta (Aβ) 1-42 [11]): 15 to 20 fold
- IC50 ratio (test:hBP) (Amyloid Beta (Aβ) 1-42 [7]): 0.77
- IC50 (half-maximal fibril Abeta coating concentration at constant antibody) (Amyloid Beta (Aβ) 1-42 [8]): 0.412 µg/mL
- EC50 (Amyloid Beta (Aβ) 1-42 [9]): 0.0462 µg/mL

B4: h2726 (antibody, V domains shown)
VH: B1 VH
VL: B1 VL with L15P, R55K, T57S, T61S, S102T
notes: Humanized IgG, detected with anti-human IgG
- IC50 of Abeta spots per neuron (% Abeta control); the table gives no unit, the x axis is 'mAb (µg/mL)' (Amyloid Beta (Aβ) 1-42 [3]): 1.67 µg/mL
- Total Area (under the curve of Abeta spots per neuron, % Abeta control) (Amyloid Beta (Aβ) 1-42 [3]): 9070
- fold increase in assay signal (OD490) relative to aducanumab (Amyloid Beta (Aβ) 1-42 [4]): 3 fold
- fold greater avidity (apparent KD) than aducanumab (Amyloid Beta (Aβ) 1-42 [12]): 5 to 11 fold
- koff (Amyloid Beta (Aβ) 1-42 [5]): 2.12e-05 s⁻¹
- kon (Amyloid Beta (Aβ) 1-42 [5]): 393000 M⁻¹ s⁻¹
- Kd (Amyloid Beta (Aβ) 1-42 [6]): 0.054 nM
- fold lower estimated EC50 relative to aducanumab (Amyloid Beta (Aβ) 1-42 [13]): 15 to 20 fold
- IC50 ratio (test:hBP) (Amyloid Beta (Aβ) 1-42 [7]): 0.68
- IC50 (half-maximal fibril Abeta coating concentration at constant antibody) (Amyloid Beta (Aβ) 1-42 [8]): 0.387 µg/mL
- EC50 (Amyloid Beta (Aβ) 1-42 [9]): 0.0403 µg/mL

B5: h2931 Fab (Fab, V domains shown)
VH: B1 VH with Y32F, I51V, S103T, S105T
VL: B1 VL
- koff (Amyloid Beta (Aβ) 1-42 [14]): 0.000199 s⁻¹
- kon (Amyloid Beta (Aβ) 1-42 [14]): 123000 M⁻¹ s⁻¹
- Kd (Amyloid Beta (Aβ) 1-42 [15]): 1.62 nM

B6: h2929 (antibody, V domains shown)
VH: B1 VH with Y32F, I51V, S103T, S105T
VL: B1 VL with L15P, K24R, L30V, K44R, R55K, T57S, T61S, T97S, F103Y
- IC50 ratio (test:hBP) (Amyloid Beta (Aβ) 1-42 [7]): 1.16

B7: h49k3G (antibody, V domains shown)
VH: B1 VH with Y32F, I51V, S55G, S105T
VL: B1 VL with Y32S, R55K, T57S, T61S, S102T
notes: also called h49_hum3; 49human3
- IC50 ratio (test:hBP) (Amyloid Beta (Aβ) 1-42 [7]): 2.16

B8: h2831 Fab (Fab, V domains shown)
VH: B1 VH with Y32F, I51V, S105T
VL: B1 VL
- koff (Amyloid Beta (Aβ) 1-42 [14]): 0.000248 s⁻¹
- kon (Amyloid Beta (Aβ) 1-42 [14]): 108000 M⁻¹ s⁻¹
- Kd (Amyloid Beta (Aβ) 1-42 [15]): 2.31 nM

B9: h2926 (antibody, V domains shown)
VH: B1 VH with Y32F, I51V, S103T, S105T
VL: B1 VL with L15P, R55K, T57S, T61S, S102T
- IC50 ratio (test:hBP) (Amyloid Beta (Aβ) 1-42 [7]): 0.99

B10: h2927 (antibody, V domains shown)
VH: B1 VH with Y32F, I51V, S103T, S105T
VL: B1 VL with L15P, R55K, T57S, T61S
- IC50 ratio (test:hBP) (Amyloid Beta (Aβ) 1-42 [7]): 1.6

B11: h4917G (antibody, V domains shown)
VH: B1 VH with Y32F, I51V, S55G, S105T
VL: B1 VL with Y32S, R55K, D60E, T61S
notes: also called h49_VK17
- IC50 ratio (test:hBP) (Amyloid Beta (Aβ) 1-42 [7]): 2.69

B12: h3818G (antibody, V domains shown)
VH: B1 VH with S30A, I51V, S55G, G56S
VL: B1 VL with L30M, Y32T, R55K, T57S, D60E, T61S, S102T
- IC50 ratio (test:hBP) (Amyloid Beta (Aβ) 1-42 [7]): 1.18

B13: 4918 (antibody, V domains shown)
VH: B1 VH with Y32F, I51V, S55G, S105T
VL: B1 VL with L30M, Y32T, R55K, T57S, D60E, T61S, S102T
notes: It is not in the first reading's list; also called h4918G; h4918
- binding result (Amyloid Beta (Aβ) 1-42 [16]): binds

B14: h2727 (antibody, V domains shown)
VH: B1 VH
VL: B1 VL with L15P, R55K, T57S, T61S
- IC50 ratio (test:hBP) (Amyloid Beta (Aβ) 1-42 [7]): 3.06

B15: bapineuzumab Fab (Fab, V domains shown)
VH: B1 VH with S55G
VL: B1 VL with L15P, Y32S, R55L, T57S, N58K, R59L, T61S, S102T
notes: also called hBP
- Kd (Amyloid Beta (Aβ) 1-42 [15]): 5.34 nM

B16: h4921G (antibody, V domains shown)
VH: B1 VH with Y32F, I51V, S55G, S105T
VL: B1 VL with Y32S, S102T
- IC50 ratio (test:hBP) (Amyloid Beta (Aβ) 1-42 [7]): 1.01

B17: h2731 Fab (Fab, V domains shown)
VH: B1 VH
VL: B1 VL
- koff (Amyloid Beta (Aβ) 1-42 [14]): 0.000289 s⁻¹
- kon (Amyloid Beta (Aβ) 1-42 [14]): 129000 M⁻¹ s⁻¹
- Kd (Amyloid Beta (Aβ) 1-42 [15]): 2.24 nM

B18: h2931 (antibody, V domains shown)
VH: B1 VH with Y32F, I51V, S103T, S105T
VL: B1 VL
notes: Humanized IgG
- IC50 of Abeta spots per neuron (% Abeta control); the table gives no unit, the x axis is 'mAb (µg/mL)' (Amyloid Beta (Aβ) 1-42 [3]): 0.627 µg/mL
- Total Area (under the curve of Abeta spots per neuron, % Abeta control) (Amyloid Beta (Aβ) 1-42 [3]): 8480
- fold increase in assay signal (OD490) relative to aducanumab (Amyloid Beta (Aβ) 1-42 [4]): 3 fold
- koff (Amyloid Beta (Aβ) 1-42 [5]): 2.05e-05 s⁻¹
- kon (Amyloid Beta (Aβ) 1-42 [5]): 335000 M⁻¹ s⁻¹
- Kd (Amyloid Beta (Aβ) 1-42 [6]): 0.0612 nM
- IC50 ratio (test:hBP) (Amyloid Beta (Aβ) 1-42 [7]): 0.59
- IC50 (half-maximal fibril Abeta coating concentration at constant antibody) (Amyloid Beta (Aβ) 1-42 [8]): 0.335 µg/mL
- EC50 (Amyloid Beta (Aβ) 1-42 [9]): 0.0435 µg/mL

B19: h2726 Fab (Fab, V domains shown)
VH: B1 VH
VL: B1 VL with L15P, R55K, T57S, T61S, S102T
- koff (Amyloid Beta (Aβ) 1-42 [14]): 0.000259 s⁻¹
- kon (Amyloid Beta (Aβ) 1-42 [14]): 129000 M⁻¹ s⁻¹
- Kd (Amyloid Beta (Aβ) 1-42 [15]): 2.01 nM
